Measured values taken from patent publication US20070065429A1, “Nogo-receptor antagonists for the treatment of conditions involving amyloid plaques” (Biogen Idec MA Inc., priority 2003, published 2007).

Key:
human NgR1 [1] = molecular target: T1, human NgR1 (Homo sapiens, UniProt Q9BZR6); test: Aβ42 effect on Biotin-Aβ40 binding to SKNMC cells expressing human NGR1; details: SKNMC cells expressing human NGR1, dose-dependent
T1 construct: expressed in transfected cells; host or cells: SKNMC cells
T1 sequence (Q9BZR6 27-447): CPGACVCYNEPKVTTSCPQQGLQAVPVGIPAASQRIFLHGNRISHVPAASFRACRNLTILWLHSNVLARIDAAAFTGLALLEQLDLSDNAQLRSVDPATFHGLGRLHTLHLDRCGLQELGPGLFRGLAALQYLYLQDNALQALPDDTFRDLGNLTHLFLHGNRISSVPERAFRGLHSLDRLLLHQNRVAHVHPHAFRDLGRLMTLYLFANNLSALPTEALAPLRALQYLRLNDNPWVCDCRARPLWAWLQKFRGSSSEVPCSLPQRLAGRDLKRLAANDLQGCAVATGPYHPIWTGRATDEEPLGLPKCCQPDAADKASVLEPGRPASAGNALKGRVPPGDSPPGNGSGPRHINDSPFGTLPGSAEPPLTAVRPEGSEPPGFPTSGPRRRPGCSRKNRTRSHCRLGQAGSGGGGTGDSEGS

sNgR310 = molecular target: T2, sNgR310 (Rattus norvegicus, UniProt Q99M75, A303T/C287S/C43R/E284G/T53A); test: Aβ42 effect on Biotin-Aβ40 binding to immobilized sNgR310; details: dose-dependent, streptavidin HRP
T2 sequence (Q99M75 27-310 C43R/T53A/E284G/C287S/A303T): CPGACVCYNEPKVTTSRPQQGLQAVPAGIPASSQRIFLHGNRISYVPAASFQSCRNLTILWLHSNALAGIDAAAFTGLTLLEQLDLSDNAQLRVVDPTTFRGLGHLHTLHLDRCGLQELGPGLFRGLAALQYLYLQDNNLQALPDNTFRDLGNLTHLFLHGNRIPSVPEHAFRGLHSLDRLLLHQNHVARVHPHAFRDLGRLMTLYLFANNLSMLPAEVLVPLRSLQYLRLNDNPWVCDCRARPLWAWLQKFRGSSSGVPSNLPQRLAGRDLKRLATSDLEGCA
Description: We examined whether the interaction between NgR and Aβ peptide has a role in aggregate formation. sNgR310 was immobilized on microtiter plates and Biotin-Aβ40 was applied along with Aβ42 peptide.

sNgR310-Fc = molecular target: T3, sNgR310-Fc (Rattus norvegicus, UniProt Q99M75, A303T/C287S/C43R/E284G/T53A); test: Competition of free Aβ with NgR ligands on sNgR310-Fc coated wells; assay type: binding; details: competition assay
T3 construct: Fc portion of IgG (rat)
T3 sequence (Q99M75 27-310 C43R/T53A/E284G/C287S/A303T): T2 sequence (Q99M75 27-310 C43R/T53A/E284G/C287S/A303T)
Method: We analyzed whether Aβ (1-28) binding competed for NgR binding with other known ligands for NgR by allowing 250 nM soluble AP-Aβ(1-28) or AP-Nogo (1-33) to bind to wells coated with purified sNgR310-Fc in the presence of various concentrations of competing free Aβ. […] We observed that the Aβ peptides bind to both sNgR310-Fc and sNgR344-Fc. […] However, Aβ(1-28) displaced Aβ-AP binding but not AP-Nogo-66 (1-33) or AP-OMgp binding in competition assays. The Aβ peptide may begin to displace AP-MAG very slightly at high concentrations in our experiments. Thus, the Aβ binding site on NgR appears largely distinct from that for the myelin ligands NogoA, OMgp and MAG. Consistent with this, the presence of Aβ had little effect on myelin or Nogo-66 inhibition of neurite outgrowth.

NgR2 = molecular target: T4, NgR2 (Homo sapiens, UniProt Q86UN3); test: Aβ-AP binding specificity, NgR2
T4 sequence (Q86UN3 47-390): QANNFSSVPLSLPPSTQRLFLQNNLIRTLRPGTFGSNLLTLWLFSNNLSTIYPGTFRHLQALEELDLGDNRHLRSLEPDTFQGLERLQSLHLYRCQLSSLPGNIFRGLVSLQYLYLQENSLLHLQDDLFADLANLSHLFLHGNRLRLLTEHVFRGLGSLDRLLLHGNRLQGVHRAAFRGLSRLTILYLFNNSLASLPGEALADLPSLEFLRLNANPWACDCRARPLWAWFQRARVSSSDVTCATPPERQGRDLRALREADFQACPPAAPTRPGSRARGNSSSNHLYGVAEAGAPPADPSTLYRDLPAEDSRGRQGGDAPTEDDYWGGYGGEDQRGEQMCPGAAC
Description: (§1) The specificity and selectivity of the Aβ(1-28) interaction with NgR was probed in several ways. The interaction was specific for NgR1 because neither NgR2 or NgR3—which share sequence similarity with NgR—bound Aβ-AP. Further, we observed species specificity: human NgR binds human AB to a greater extent than mouse NgR binds human AB or human NgR binds mouse AB or mouse NgR binds mouse Aβ.

NgR3 = molecular target: T5, NgR3 (Homo sapiens, UniProt Q86UN2); test: Aβ-AP binding specificity, NgR3
T5 sequence (Q86UN2 25-420): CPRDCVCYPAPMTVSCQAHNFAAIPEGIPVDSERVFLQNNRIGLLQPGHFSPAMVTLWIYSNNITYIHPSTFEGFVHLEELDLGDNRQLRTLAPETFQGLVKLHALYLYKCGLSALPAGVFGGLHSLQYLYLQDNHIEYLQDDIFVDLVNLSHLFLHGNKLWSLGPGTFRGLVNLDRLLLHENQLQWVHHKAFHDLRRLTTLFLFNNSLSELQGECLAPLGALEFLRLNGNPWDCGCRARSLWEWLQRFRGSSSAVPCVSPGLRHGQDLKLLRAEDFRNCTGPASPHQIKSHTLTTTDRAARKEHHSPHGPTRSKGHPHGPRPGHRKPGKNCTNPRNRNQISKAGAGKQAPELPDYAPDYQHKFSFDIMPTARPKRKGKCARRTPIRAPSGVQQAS
Description: as §1

NgR = molecular target: T6, NgR (Homo sapiens, UniProt Q9BZR6); test: AP-Aβ(1-28) fusion protein binding to NgR-expressing COS cells; details: not to vector-transfected COS cells
T6 construct: expressed in transfected cells; host or cells: COS cells
T6 sequence (Q9BZR6 27-473): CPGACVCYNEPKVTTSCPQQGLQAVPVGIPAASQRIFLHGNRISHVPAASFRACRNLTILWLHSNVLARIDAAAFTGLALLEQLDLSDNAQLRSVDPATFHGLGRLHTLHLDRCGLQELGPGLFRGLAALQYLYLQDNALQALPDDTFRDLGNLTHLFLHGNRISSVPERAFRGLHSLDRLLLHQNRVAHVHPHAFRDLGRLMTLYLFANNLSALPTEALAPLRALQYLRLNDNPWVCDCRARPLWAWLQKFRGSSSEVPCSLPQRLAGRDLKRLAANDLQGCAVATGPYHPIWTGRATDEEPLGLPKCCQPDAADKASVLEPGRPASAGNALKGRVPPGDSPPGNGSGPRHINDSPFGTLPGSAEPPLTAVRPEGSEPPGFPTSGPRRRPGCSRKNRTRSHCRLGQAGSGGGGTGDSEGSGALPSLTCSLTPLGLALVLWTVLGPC
Description: We then investigated whether the Aβ region of APP is involved in its interaction with NgR—including whether the fibrillogenic Aβ42-3 peptide binds NgR. We created two fusion protein constructs containing alkaline phosphatase (AP) and the hydrophilic region of Aβ (amino acids 1-28) by fusing the coding sequence in frame with the signal sequence-6×His-placental alkaline phosphatase (AP) sequence of the vector pAP-6 (Nakamura et al., Neuron 2: 1093-1100, 1988). The AP-Aβ and Aβ-AP proteins both bound to NgR-expressing COS cells but not to vector-transfected COS cells. This binding was saturable with an apparent Kd of 60 nM. The interaction also was detected using purified Biotin-Aβ(1-40) in an ELISA-type assay with immobilized NgR.

human NgR1 [2] = molecular target: T1, human NgR1; test: Fluo-Aβ42 binding to SKNMC cells expressing human NgR-1; details: 2 h at 4° C.

Substance: Aβ42 peptide: fibrillogenic Aβ42 peptide
- effect on binding of Biotin-Aβ40 peptide to cells (human NgR1 [1]): enhanced
- effect on binding of Biotin-Aβ40 peptide to immobilized sNgR310 (sNgR310): enhanced

Substance: Aβ(1-28): free Aβ peptide, amino acids 1-28, used as competitor
- displacement of AP-Nogo-66 (1-33) binding (sNgR310-Fc): not
- displacement of AP-OMgp binding (sNgR310-Fc): not
- displacement of Aβ-AP binding (sNgR310-Fc): displaced

Substance: Aβ-AP: fusion protein of the hydrophilic region of Aβ (amino acids 1-28) and alkaline phosphatase (AP)
- binding to NgR2 (NgR2): neither
- binding to NgR3 (NgR3): neither
- binding to NgR-expressing COS cells (NgR): bound

Substance: Fluo-Aβ42: labelled fibrillogenic Aβ42 peptide
- binding to SKNMC cells expressing human NgR-1 (human NgR1 [2]): binds
